According to publication PMC2904749:

Legend:
[1] = biological target: human βB2-crystallin Q70E (human); experiment: small angle X-ray scattering
[2] = biological target: human βB2-crystallin Q70E (human); experiment: dynamic light scattering
[3] = biological target: human βB2-crystallin Q162E (human); experiment: small angle X-ray scattering
[4] = biological target: human βB2-crystallin Q162E (human); experiment: dynamic light scattering
[5] = biological target: human βB2-crystallin doubly deamidated mutant Q70EQ162E (human); experiment: small angle X-ray scattering
[6] = biological target: human βB2-crystallin doubly deamidated mutant Q70EQ162E (human); experiment: dynamic light scattering

human βB2-crystallin Q70E (natural protein)
stoichiometry N [1]: 2
stoichiometry N [2]: 2

human βB2-crystallin Q162E (natural protein)
stoichiometry N [3]: 2
stoichiometry N [4]: 2

human βB2-crystallin doubly deamidated mutant Q70EQ162E (natural protein)
stoichiometry N [5]: 2
stoichiometry N [6]: 2
